Laboratory results reported in patent US20230048390A1 (Xencor, published 2023).

Key:
mouse CD20 = target: T1, mouse CD20 (mouse, UniProt P19437 1-291, limits assumed); experiment: not described
T1 construct: Named only as mouse CD20
T1 sequence (looked up): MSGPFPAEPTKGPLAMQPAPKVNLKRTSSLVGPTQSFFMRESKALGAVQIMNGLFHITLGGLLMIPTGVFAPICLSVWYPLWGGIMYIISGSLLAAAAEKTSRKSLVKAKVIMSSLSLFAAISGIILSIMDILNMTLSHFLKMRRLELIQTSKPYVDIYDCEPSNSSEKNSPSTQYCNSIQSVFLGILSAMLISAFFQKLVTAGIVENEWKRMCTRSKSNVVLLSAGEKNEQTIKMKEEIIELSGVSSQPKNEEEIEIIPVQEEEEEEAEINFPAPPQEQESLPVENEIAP

human CD20 = target: T2, human CD20 (human, UniProt P11836 1-297); experiment: cell-based or functional assay
T2 sequence (looked up): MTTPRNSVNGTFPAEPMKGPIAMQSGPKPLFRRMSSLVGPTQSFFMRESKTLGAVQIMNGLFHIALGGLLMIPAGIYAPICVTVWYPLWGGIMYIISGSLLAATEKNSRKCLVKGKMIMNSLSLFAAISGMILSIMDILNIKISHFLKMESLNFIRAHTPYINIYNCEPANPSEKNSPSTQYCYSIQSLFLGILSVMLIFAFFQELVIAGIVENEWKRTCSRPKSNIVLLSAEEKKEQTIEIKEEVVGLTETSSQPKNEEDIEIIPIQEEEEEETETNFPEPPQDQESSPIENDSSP

B1: XmAb®13676 (XENP13676 Anti-CD20 × Anti-CD3 Fab-scFv-Fc) (bispecific antibody)
heavy: QVQLVQSGAEVKKPGASVKVSCKASGYTFTSYNMHWVRQAPGQGLEWMGAIYPGNGDTSYNQKFQGRVTITADKSISTAYMELSSLRSEDTAVYYCARSTYYGGDWYFNVWGAGTLVTVSSASTKGPSVFPLAPSSKSTSGGTAALGCLVKDYFPEPVTVSWNSGALTSGVHTFPAVLQSSGLYSLSSVVTVPSSSLGTQTYICNVNHKPSDTKVDKKVEPKSCDKTHTCPPCPAPPVAGPSVFLFPPKPKDTLMISRTPEVTCVVVDVKHEDPEVKFNWYVDGVEVHNAKTKPREEEYNSTYRVVSVLTVLHQDWLNGKEYKCKVSNKALPAPIEKTISKAKGQPREPQVYTLPPSREEMTKNQVSLTCDVSGFYPSDIAVEWESDGQPENNYKTTPPVLDSDGSFFLYSKLTVDKSRWEQGDVFSCSVMHEALHNHYTQKSLSLSPGK
chain: not shown
light: QIVLTQSPSSLSASVGDRVTITCRASSSVSYIHWFQQKPGKSPKPLIYATSNLASGVPVRFSGSGSGTDYTLTISSLQPEDFATYYCQQWTSNPPTFGGGTKVEIKRTVAAPSVFIFPPSDEQLKSGTASVVCLLNNFYPREAKVQWKVDNALQSGNSQESVTEQDSKDSTYSLSSTLTLSKADYEKHKVYACEVTHQGLSSPVTKSFNRGEC
notes: The anti-CD20 Fv is derived from murine antibody C2B8; also called plamotamab
Mouse CD20
  binding result: no binding
Human CD20
  EC50 of Jeko-1 target cell killing (RTCC) in the presence of 3 µg/ml rituximab: 0.051 µg/mL
  EC50 of Jeko-1 target cell killing (RTCC) in the presence of 10 µg/ml rituximab: 0.093 µg/mL
  EC50 of Jeko-1 target cell killing (RTCC) in the presence of 30 µg/ml rituximab: 0.162 µg/mL
  EC50 of Jeko-1 target cell killing (RTCC) in the presence of 100 µg/ml rituximab: 0.387 µg/mL
  EC50 of Jeko-1 target cell killing (RTCC), no rituximab: 0.024 µg/mL
  EC50 of RTCC against Ramos cells with purified T cells from six healthy donors: 0.0053 to 0.0143 µg/mL
